Reference: the supplement of paper PMC10567573

B1: FADS1 (parent)
chain: LNFQIEHHLFPTMPRHNYHKVAPL
B2: DLC1 (parent)
chain: HVTHWMGQPFNSDDRNTACHHGLV

Variants of: B1
Assay: protein stability index of a GFP-peptide fusion (GPS, HEK-293T) (PSI 1-6); higher = more stable
Settings: c terminus: a fixed tail appended
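Note: lentivirally expressed fusions sorted by FACS into six bins by GFP to DsRed ratio, PSI derived from sequencing read proportions per bin multiplied by bin number.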

Variant | protein stability index
LAFQIEHHLFPTMPRHNYHKVAPL | 2.02
LHFQIEHHLFPTMPRHNYHKVAPL | 2.37
LYFQIEHHLFPTMPRHNYHKVAPL | 1.77
LPFQIEHHLFPTMPRHNYHKVAPL | 1.65
LDFQIEHHLFPTMPRHNYHKVAPL | 2.91
LKFQIEHHLFPTMPRHNYHKVAPL | 2.28
LMFQIEHHLFPTMPRHNYHKVAPL | 1.53
LVFQIEHHLFPTMPRHNYHKVAPL | 2.5
LCFQIEHHLFPTMPRHNYHKVAPL | 1.98
LTFQIEHHLFPTMPRHNYHKVAPL | 2.76
LLFQIEHHLFPTMPRHNYHKVAPL | 3.82
LRFQIEHHLFPTMPRHNYHKVAPL | 2.09
LEFQIEHHLFPTMPRHNYHKVAPL | 2.42
LWFQIEHHLFPTMPRHNYHKVAPL | 3.67
LIFQIEHHLFPTMPRHNYHKVAPL | 3.16
LSFQIEHHLFPTMPRHNYHKVAPL | 1.88
LQFQIEHHLFPTMPRHNYHKVAPL | 1.91
LGFQIEHHLFPTMPRHNYHKVAPL | 1.24
PNFQIEHHLFPTMPRHNYHKVAPL | 2.26
HNFQIEHHLFPTMPRHNYHKVAPL | 2.1
NNFQIEHHLFPTMPRHNYHKVAPL | 1.95

Variant | protein stability index
GNFQIEHHLFPTMPRHNYHKVAPL | 2.63
INFQIEHHLFPTMPRHNYHKVAPL | 2.2
RNFQIEHHLFPTMPRHNYHKVAPL | 2.48
ENFQIEHHLFPTMPRHNYHKVAPL | 2.29
TNFQIEHHLFPTMPRHNYHKVAPL | 2.03
CNFQIEHHLFPTMPRHNYHKVAPL | 2.11
FNFQIEHHLFPTMPRHNYHKVAPL | 3.4
MNFQIEHHLFPTMPRHNYHKVAPL | 1.63
DNFQIEHHLFPTMPRHNYHKVAPL | 1.31
ANFQIEHHLFPTMPRHNYHKVAPL | 1.91
SNFQIEHHLFPTMPRHNYHKVAPL | 1.84
YNFQIEHHLFPTMPRHNYHKVAPL | 1.93
QNFQIEHHLFPTMPRHNYHKVAPL | 2.31
KNFQIEHHLFPTMPRHNYHKVAPL | 2.03
VNFQIEHHLFPTMPRHNYHKVAPL | 2.18
WNFQIEHHLFPTMPRHNYHKVAPL | 3.02
LNFAIEHHLFPTMPRHNYHKVAPL | 1.44
LNFGIEHHLFPTMPRHNYHKVAPL | 2.08
LNFFIEHHLFPTMPRHNYHKVAPL | 2.52
LNFDIEHHLFPTMPRHNYHKVAPL | 1.66
LNFCIEHHLFPTMPRHNYHKVAPL | 1.86

Variant | protein stability index
LNFEIEHHLFPTMPRHNYHKVAPL | 2.25
LNHQIEHHLFPTMPRHNYHKVAPL | 1.83
LNPQIEHHLFPTMPRHNYHKVAPL | 1.95
LNRQIEHHLFPTMPRHNYHKVAPL | 1.96
LNKQIEHHLFPTMPRHNYHKVAPL | 1.88
LNEQIEHHLFPTMPRHNYHKVAPL | 2.65
LNMQIEHHLFPTMPRHNYHKVAPL | 2.31
LNCQIEHHLFPTMPRHNYHKVAPL | 2.22
LNSQIEHHLFPTMPRHNYHKVAPL | 2.15
LNTQIEHHLFPTMPRHNYHKVAPL | 2.4
LNVQIEHHLFPTMPRHNYHKVAPL | 1.96
LNLQIEHHLFPTMPRHNYHKVAPL | 1.73
LNQQIEHHLFPTMPRHNYHKVAPL | 2.17
LNAQIEHHLFPTMPRHNYHKVAPL | 2.58
LNGQIEHHLFPTMPRHNYHKVAPL | 2.42
LNYQIEHHLFPTMPRHNYHKVAPL | 1.37
LNWQIEHHLFPTMPRHNYHKVAPL | 1.92
LNNQIEHHLFPTMPRHNYHKVAPL | 2.52
LNDQIEHHLFPTMPRHNYHKVAPL | 3.03

Variants of: B2
Assay: as above
Settings: c terminus: a fixed tail appended

Variant | protein stability index
HVTHWMGQPFNSDDRNQACHHGLV | 2.38
HVTHWMGQPFNSDDRNKACHHGLV | 2.01
HVTHWMGQPFNSDDRNCACHHGLV | 1.66
HVTHWMGQPFNSDDRNFACHHGLV | 2.06
HVTHWMGQPFNSDDRNVACHHGLV | 2.1
HVTHWMGQPFNSDDRNEACHHGLV | 2.32
HVTHWMGQPFNSDDRNMACHHGLV | 1.72
HVTHWMGQPFNSDDRNTACHHGRV | 2.47
HVTHWMGQPFNSDDRNTACHHGVV | 2.39
HVTHWMGQPFNSDDRNTACHHGTV | 2.26
HVTHWMGQPFNSDDRNTACHHGGV | 2.49
HVTHWMGQPFNSDDRNTACHHGNV | 2.37
HVTHWMGQPFNSDDRNTACHHGLD | 2.66
HVTHWMGQPFNSDDRNTACHHGLK | 2.6
HVTHWMGQPFNSDDRNTACHHGLI | 2.08
HVTHWMGQPFNSDDRNTACHHGLQ | 2.19
HVTHWMGQPFNSDDRNTACHHGLC | 2.16
HVTHWMGQPFNSDDRNTACHHGLA | 2.31
HVTHWMGQPFNSDDRNTACHHGLS | 2.35
HVTHWMGQPFNSDDRNTACHHGLG | 1.92
HVTHWMGQPFNSDDRNTACHHGLM | 2.04
HVTHWMGQPFNSDDRNTACHHGLR | 2.22
HVTHWMGQPFNSDDSNTACHHGLV | 2.4
HLTHWMGQPFNSDDRNTACHHGLV | 2.74
HFTHWMGQPFNSDDRNTACHHGLV | 2.71
HITHWMGQPFNSDDRNTACHHGLV | 2.22

Variant | protein stability index
HGTHWMGQPFNSDDRNTACHHGLV | 3.3
HETHWMGQPFNSDDRNTACHHGLV | 3.78
HNTHWMGQPFNSDDRNTACHHGLV | 3.11
HKTHWMGQPFNSDDRNTACHHGLV | 2.65
HTTHWMGQPFNSDDRNTACHHGLV | 2.71
HSTHWMGQPFNSDDRNTACHHGLV | 2.62
HVTHWMGQPFNSDTRNTACHHGLV | 1.99
HVTHWMGQPFNSDLRNTACHHGLV | 1.31
HVTHWMGQPFNSDVRNTACHHGLV | 1.71
HVTHWMGQPFNSDQRNTACHHGLV | 2.31
HVTHWMGQPFNSDDRNTAQHHGLV | 2.61
HVTHWMGQPFNSDDRNTADHHGLV | 2.68
HVTHWMGQPFNSDDRNTARHHGLV | 2.4
HVTHWMGQPFNSDDRNTAIHHGLV | 2.4
HVTHWMGQPFNSDDRNTANHHGLV | 2.43
HVTHQMGQPFNSDDRNTACHHGLV | 3.47
HVTHYMGQPFNSDDRNTACHHGLV | 3.01
HVTHRMGQPFNSDDRNTACHHGLV | 3.56
HVTHLMGQPFNSDDRNTACHHGLV | 2.53
HVTHFMGQPFNSDDRNTACHHGLV | 2.72
HVTHSMGQPFNSDDRNTACHHGLV | 4
HVTNWMGQPFNSDDRNTACHHGLV | 2.11
HVTWWMGQPFNSDDRNTACHHGLV | 1.6
HVTMWMGQPFNSDDRNTACHHGLV | 2.72
HVTGWMGQPFNSDDRNTACHHGLV | 1.5
HVTRWMGQPFNSDDRNTACHHGLV | 1.97

Variant | protein stability index
HVTYWMGQPFNSDDRNTACHHGLV | 1.44
HVTTWMGQPFNSDDRNTACHHGLV | 2.38
HVTHWMGQPFNSDDRNTACHGGLV | 2.37
HVTHWMGQPFNSDDRNTACHWGLV | 1.69
HVTHWMGQPFNSDDRNTACHFGLV | 1.64
EVTHWMGQPFNSDDRNTACHHGLV | 2.78
KVTHWMGQPFNSDDRNTACHHGLV | 2.46
DVTHWMGQPFNSDDRNTACHHGLV | 2.68
QVTHWMGQPFNSDDRNTACHHGLV | 2.68
AVTHWMGQPFNSDDRNTACHHGLV | 2.68
WVTHWMGQPFNSDDRNTACHHGLV | 1.78
HVTHWMGTPFNSDDRNTACHHGLV | 2.6
HVTHWMGLPFNSDDRNTACHHGLV | 1.22
HVTHWMGNPFNSDDRNTACHHGLV | 1.92
HVTHWMGEPFNSDDRNTACHHGLV | 2.43
HVTHWMGGPFNSDDRNTACHHGLV | 1.81
HVTHWMGKPFNSDDRNTACHHGLV | 2.27
HVTHWMGIPFNSDDRNTACHHGLV | 2.66
HVTHWMGQPFNADDRNTACHHGLV | 2.02
HVTHWMGQPFNMDDRNTACHHGLV | 2.61
HVTHWMGQPFNWDDRNTACHHGLV | 1.92
HVTHWMGQPFNTDDRNTACHHGLV | 2.02
HVTHWMTQPFNSDDRNTACHHGLV | 1.91
HVTHWMNQPFNSDDRNTACHHGLV | 2.23
HVTHWMHQPFNSDDRNTACHHGLV | 1.97
HVTHWMRQPFNSDDRNTACHHGLV | 1.76

Variant | protein stability index
HVTHWMQQPFNSDDRNTACHHGLV | 2.07
HVTHWMPQPFNSDDRNTACHHGLV | 2.24
HVTHWMGQPFNSDDRNTACHHRLV | 2.13
HVTHWMGQPFNSDDRNTACHHDLV | 2.29
HVTHWMGQPFNSDDRNTACHHELV | 2.59
HVTHWMGQPFNSDDRNTACHHVLV | 1.89
HVTHWMGQPFNSDDRNTACHHYLV | 1.6
HVTHWMGQPFNSDDRNTACHHFLV | 1.57
HVTHWMGQPFNSDDRNTACHHHLV | 1.99
HVTHWMGQHFNSDDRNTACHHGLV | 2.23
HVTHWMGQNFNSDDRNTACHHGLV | 2.2
HVTHWMGQGFNSDDRNTACHHGLV | 1.88
HVTHWMGQWFNSDDRNTACHHGLV | 1.6
HVTHWMGQMFNSDDRNTACHHGLV | 2.38
HVPHWMGQPFNSDDRNTACHHGLV | 3.11
HVKHWMGQPFNSDDRNTACHHGLV | 1.91
HVCHWMGQPFNSDDRNTACHHGLV | 1.8
HVDHWMGQPFNSDDRNTACHHGLV | 1.66
HVHHWMGQPFNSDDRNTACHHGLV | 1.93
HVGHWMGQPFNSDDRNTACHHGLV | 1.19
HVTHWMGQPFNSDDRETACHHGLV | 2.35
HVTHWMGQPFNSDDRPTACHHGLV | 1.64
HVTHWMGQPFNSDDRMTACHHGLV | 1.76
HVTHWMGQPFNSDDRFTACHHGLV | 1.92
HVTHWMGQPFNSDDRDTACHHGLV | 2.35
HVTHWMGQPFNSDDRNTACYHGLV | 2.16

Variant | protein stability index
HVTHWMGQPFNSDDRNTACCHGLV | 2.25
HVTHWMGQPFNSDDRNTACGHGLV | 2.16
HVTHWMGQPFYSDDRNTACHHGLV | 2.26
HVTHWMGQPFLSDDRNTACHHGLV | 2.14
HVTHWMGQPFSSDDRNTACHHGLV | 1.69
HVTHWMGQPFCSDDRNTACHHGLV | 2.17
HVTHWMGQPFASDDRNTACHHGLV | 2.07
HVTHWMGQPFTSDDRNTACHHGLV | 2.02
HVTHWMGQPFNSMDRNTACHHGLV | 1.13
HVTHWMGQPFNSPDRNTACHHGLV | 2.14
HVTHWMGQPFNSEDRNTACHHGLV | 2.07
HVTHWMGQPFNSSDRNTACHHGLV | 1.72
HVTHWMGQPFNSDDRNTICHHGLV | 1.76
HVTHWMGQPFNSDDRNTQCHHGLV | 2.47
HVTHWMGQPFNSDDRNTFCHHGLV | 2.24
HVTHWMGQPFNSDDRNTPCHHGLV | 1.94
HVTHWTGQPFNSDDRNTACHHGLV | 2.12
HVTHWSGQPFNSDDRNTACHHGLV | 2.4
HVTHWYGQPFNSDDRNTACHHGLV | 2.23
HVTHWWGQPFNSDDRNTACHHGLV | 2.15
HVTHWQGQPFNSDDRNTACHHGLV | 2.74
HVTHWNGQPFNSDDRNTACHHGLV | 2.92
HVTHWEGQPFNSDDRNTACHHGLV | 3.24
